Experimental data from patent US7867500B2, “Cofactor that modulates steroid receptor activities” (The United States of America as represented by the …, priority 2004, dated 2011).

Legend:
[1] = system: GR repression of an AP-1 induced gene; assay: GR-mediated repression of PMA-induced AP-1/Luc reporter in U2OS.rGR cells; type: cell-based; details: 25 μM PMA, no Dex
Procedure: FIG. 5A-F illustrate STAMP modulation of GR-mediated repression. […] U2OS.rGR cells were transiently transfected with ±TIF2 (20 ng)±STAMP (100 ng) plasmids, AP-1/Luc reporter (20 ng), and Renilla control (10 ng) plasmid. The cells were induced with ethanol (EtOH) or 25 μM PMA±0.1 μM Dex. […] The average values±S.E.M. of four experiments are plotted. The numbers in parentheses above the bars labeled “PMA+Dex” represent the average fold repression caused by Dex± the various factors.
FIG. 5B illustrates that functional TIF2 is needed for optimal STAMP activity. U2OS.rGR cells were transiently transfected and processed as described for FIG. 5A but less STAMP (50 ng) was used and two concentrations of TIF2 or TIF2m123 (10 and 20 ng) were employed. The average values±S.E.M. of 4-5 experiments are plotted. An asterisk indicates a significant difference (P≦0.031) between samples containing equal amounts of TIF2 and TIF2m123.
Rogatsky et al. have reported that TIF2 augments GR repression of an AP-1 induced gene. […] The TIF2 domain identified as having TIF2 activity in GR repression was the same as used to isolate STAMP. In order to determine if STAMP was active in GR-mediated gene repression as well as induction, the ability of STAMP to increase the repressive activity of GR in the AP-1 responsive whole cell bioassay system was assessed using U2OS.rGR cells.

coll3 promoter = assay: ChIP assay on the endogenous coll3 promoter in U2OS.rGR cells; type: cell-based; details: 1 μM Dex, after 20 min of steroid treatment; HA/STAMP
Procedure: FIG. 5C illustrates that STAMP and GR are co-localized on the promoter of an endogenous regulated gene as detected by chromatin immunoprecipitation (ChIP) assays. U2OS.rGR cells were treated with 1 μM Dex and then processed after 0 to 80 min as described in Example 1. The binding of GR and STAMP to the coll3 promoter was determined by the ability of PCR to amplify coll3 promoter sequences in the DNA that had been co-immunoprecipitated by anti-GR and anti-HA (to immobilize HA/STAMP) antibodies, respectively (upper panel). […] Similar results were obtained in two additional experiments.
The basic method of Ma et al. (Ma et al. (2003) Methods Enzymol. 364: […], was used with modifications. Two days before harvest, U2OS.rGR cells were seeded into 150 mm dishes at 3,000,000 cells per dish in phenol-red free medium with 10% charcoal/dextran-stripped fetal bovine serum. Each dish was transfected on the next day with 15 μg HA-STAMP and 60 μl Liopfectamine. On the third day, after brief ligand treatment, formaldehyde (37%) was added directly into the medium to a final concentration of 1% (37° C., 10 min), which was followed by glycine to a final concentration of 0.125 M (room temperature, 5 min with shaking). Cells were washed with (4° C.) cold PBS twice and harvested by scraping into 5 ml of cold (4° C.) PBS with a protease inhibitor cocktail (Roche). […]

B1: STAMP: SRC-1 and TIF2 Associated Modulatory Protein, 1277 amino acid human polypeptide, expressed from transfected plasmid (protein)
chain: MARDLEETASSSEDEEVISQEDHPCIMWTGGCRRIPVLVFHADAILTKDNNIRVIGERYHLSYKIVRTDSRLVRSILTAHGFHEVHPSSTDYNLMWTGSHLKPFLLRTLSEAQKVNHFPRSYELTRKDRLYKNIIRMQHTHGFKVFHILPQTFLLPAEYAEFCNSYSKDRGPWIVKPVASSRGRGVYLINNPNQISLEENILVSRYINNPLLIDDFKFDVRLYVLVTSYDPLVIYLYEEGLARFATVRYDQGAKNIRNQFMHLTNYSVNKKSGDYVSCDDPEVEDYGNKWSMSAMLRYLKQEGRDTTALMAHVEDLIIKTIISAELAIATACKTFVPHRSSCFELYGFDVLIDSTLKPWLLEVNLSPSLACDAPLDLKIKASMISDMFTVVGFVCQDPAQRASTRPIYPTFESSRRNPFQKPQRCRPLSASDAEMKNLVGSAREKGPGKLGGSVLGLSMEEIKVLRRVKEENDRRGGFIRIFPTSETWEIYGSYLEHKTSMNYMLATRLFQDRMTADGAPELKIESLNSKAKLHAALYERKLLSLEVRKRRRRSSRLRAMRPKYPVITQPAEMNVKTETESEEEEEVALDNEDEEQEASQEESAGFLRENQAKYTPSLTALVENTPKENSMKVREWNNKGGHCCKLETQELEPKFNLMQILQDNGNLSKMQARIAFSAYLQHVQIRLMKDSGGQTFSASWAAKEDEQMELVVRFLKRASNNLQHSLRMVLPSRRLALLERRRILAHQLGDFIIVYNKETEQMAEKKSKKKVEEEEEDGVNMENFQEFIRQASEAELEEVLTFYTQKNKSASVFLGTHSKISKNNNNYSDSGAKGDHPETIMEEVKIKPPKQQQTTEIHSDKLSRFTTSAEKEAKLVYSNSSSGPTATLQKIPNTHLSSVTTSDLSPGPCHHSSLSQIPSAIPSMPHQPTILLNTVSASASPCLHPGAQNIPSPTGLPRCRSGSHTIGPFSSFQSAAHIYSQKLSRPSSAKAGSCYLNKHHSGIAKTQKEGEDASLYSKRYNQSMVTAELQRLAEKQAARQYSPSSHINLLTQQVTNLNLATGIINRSSASAPPTLRPIISPSGPTWSTQSDPQAPENHSSSPGSRSLQTGGFAWEGEVENNVYSQATGVVPQHKYHPTAGSYQLQFALQQLEQQKLQSRQLLDQSRARHQAIFGSQTLPNSNLWTMNNGAGCRISSATASGQKPTTLPQKVVPPPSSCASLVPKPPPNHEQVLRRATSQKASKGSSAEGQLNGLQSSLNPAASVPITSSTDPAHTKI
In the case of B1, the “fold induction by PMA” value [1] is reported as “unchanged” and the “localization on the coll3 promoter” value (coll3 promoter) is reported as “induced to localize on the coll3 promoter”.
